Data from patent US7026125, “Heterodimers of retinoid X receptors (RXRS) and other steroid hormone receptors” (Ligand Pharmaceuticals).

Assays:
[1] = target: Flag-RARγ/RXRα heterodimer (UniProt P13631;P19793 P13631:1-454,P19793:1-462); experiment: EMSA; inhibited by anti-Flag; conditions: tags: N-terminal Flag on RARγ; label: 32P
Protocol: (§1) In vitro translated receptor protein (1 to 5 μl depending on the translation efficiency) was incubated with the ^32P-labeled oligonucleotides in a 20-μl reaction mixture containing 10 mM hepes buffer, pH 7.9, 50 mM KCl, 1 mM DTT, 2.5 mM MgCl, 10% glycerol, and 1 μg of poly(dI-dC) at 25° C. for 20 minutes. In general, relative low receptor concentration was used to obtain the clear effect of heterodimer formation. The reaction mixture was then loaded on a 5% nondenaturing ployacrylamide gel containing 0.5×TBE (1×TBE=0.089 M Tris-borate, 0.089 M boric acid, and 0.002 M EDTA). To analyze the effect of RXRα or the nuclear proteins on receptor DNA binding activity, RXRα or the cell extracts were preincubated with receptor protein at room temperature for 10 minutes before performing the DNA binding assay. When antibody was used, 1 μl of the antiserum was incubated with the specific translation products at room temperature for 45 minutes before performing the experiments described above.

[2] = target: TRαm1/RXRα (UniProt P10827-2;P19793 P10827-2:1-402,P19793:1-462, TRα C-terminal deletion of 8 aa); experiment: EMSA; interaction unaffected; conditions: label: 32P
Protocol: as §1

[3] = target: RARα/RXRα heterodimer (Homo sapiens, UniProt P10276;P19793 P10276:1-462,P19793:1-462); experiment: EMSA; conditions: label: 32P
Protocol: (§2) (a) In vitro synthesized TRα, TRβ, RARα, RARβ, RARγ and TRα2 receptor proteins were preincubated either with (+) or without (−) equal amount of in vitro synthesized RXRα protein at room temperature for 10 minutes. Following this preincubation, the reaction mixtures were incubated with ^32p-labelled palindromic TRE (for 1 sequence see FIG. 2a) and analyzed by gel retardation assay as described in Experimental Procedures. […] As a control, equal amounts of TRα and RARα proteins were also mixed and incubated with labelled TRE.
as §1

[4] = target: RARβ/RXRα heterodimer (UniProt P10826-2;P19793 P10826-2:1-448,P19793:1-462); experiment: EMSA; conditions: label: 32P
Protocol: as §2, §1

[5] = target: T1, TRα (UniProt P10827-2 P10827-2:1-410); experiment: EMSA; monomer complex; 25 C, 50 mM KCl; conditions: label: 32P
T1 sequence: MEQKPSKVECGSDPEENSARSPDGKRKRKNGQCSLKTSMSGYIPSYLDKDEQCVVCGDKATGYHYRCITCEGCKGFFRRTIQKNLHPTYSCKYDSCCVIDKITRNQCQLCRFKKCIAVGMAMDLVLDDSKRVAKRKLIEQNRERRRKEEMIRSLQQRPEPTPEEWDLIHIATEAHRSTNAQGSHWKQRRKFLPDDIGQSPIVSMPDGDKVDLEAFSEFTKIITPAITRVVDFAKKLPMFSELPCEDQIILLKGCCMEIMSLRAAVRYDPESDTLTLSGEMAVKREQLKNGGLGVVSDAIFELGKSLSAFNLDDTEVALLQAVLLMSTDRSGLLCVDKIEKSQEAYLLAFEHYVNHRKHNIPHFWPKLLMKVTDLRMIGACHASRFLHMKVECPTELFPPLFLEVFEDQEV
Protocol: as §2
as §1, with “When antibody was used, 1 μl of the antiserum was incubated with the specific translation products at room temperature for 45 minutes before performing the experiments described above.” left out

[6] = target: T2, RARα (Homo sapiens, UniProt P10276 P10276:1-462); experiment: EMSA; no detectable complex under conditions used; conditions: label: 32P
T2 sequence: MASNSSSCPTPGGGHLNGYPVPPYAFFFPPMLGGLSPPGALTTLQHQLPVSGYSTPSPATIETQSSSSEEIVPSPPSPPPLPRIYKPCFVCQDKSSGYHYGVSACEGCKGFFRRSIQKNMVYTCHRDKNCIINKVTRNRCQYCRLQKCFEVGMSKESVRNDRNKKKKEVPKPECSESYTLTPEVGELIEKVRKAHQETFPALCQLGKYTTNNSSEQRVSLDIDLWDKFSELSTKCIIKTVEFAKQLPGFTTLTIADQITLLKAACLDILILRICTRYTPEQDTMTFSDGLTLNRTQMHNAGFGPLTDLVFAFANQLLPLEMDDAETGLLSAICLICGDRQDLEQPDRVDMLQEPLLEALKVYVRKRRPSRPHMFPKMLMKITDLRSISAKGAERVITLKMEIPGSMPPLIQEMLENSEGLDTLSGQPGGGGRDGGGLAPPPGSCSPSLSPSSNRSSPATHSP
Protocol: as §2, §1

[7] = target: T3, RARβ (UniProt P10826-2 P10826-2:1-448); experiment: EMSA; no detectable complex under conditions used; conditions: label: 32P
T3 sequence: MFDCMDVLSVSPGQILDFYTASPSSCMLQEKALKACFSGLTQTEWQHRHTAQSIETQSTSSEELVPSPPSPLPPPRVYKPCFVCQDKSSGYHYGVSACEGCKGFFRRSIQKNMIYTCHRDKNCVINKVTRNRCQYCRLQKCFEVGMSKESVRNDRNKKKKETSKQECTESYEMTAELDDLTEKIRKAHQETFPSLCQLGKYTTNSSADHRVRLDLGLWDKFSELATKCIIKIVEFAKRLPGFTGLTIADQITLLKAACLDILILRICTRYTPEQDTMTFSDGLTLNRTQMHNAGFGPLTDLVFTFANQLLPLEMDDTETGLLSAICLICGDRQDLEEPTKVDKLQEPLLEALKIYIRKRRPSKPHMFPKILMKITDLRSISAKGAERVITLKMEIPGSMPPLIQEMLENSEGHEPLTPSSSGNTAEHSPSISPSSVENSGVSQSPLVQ
Protocol: as §2, §1

[8] = target: T4, RARγ (UniProt P13631 P13631:1-454); experiment: EMSA; no detectable complex under conditions used; conditions: label: 32P
T4 sequence: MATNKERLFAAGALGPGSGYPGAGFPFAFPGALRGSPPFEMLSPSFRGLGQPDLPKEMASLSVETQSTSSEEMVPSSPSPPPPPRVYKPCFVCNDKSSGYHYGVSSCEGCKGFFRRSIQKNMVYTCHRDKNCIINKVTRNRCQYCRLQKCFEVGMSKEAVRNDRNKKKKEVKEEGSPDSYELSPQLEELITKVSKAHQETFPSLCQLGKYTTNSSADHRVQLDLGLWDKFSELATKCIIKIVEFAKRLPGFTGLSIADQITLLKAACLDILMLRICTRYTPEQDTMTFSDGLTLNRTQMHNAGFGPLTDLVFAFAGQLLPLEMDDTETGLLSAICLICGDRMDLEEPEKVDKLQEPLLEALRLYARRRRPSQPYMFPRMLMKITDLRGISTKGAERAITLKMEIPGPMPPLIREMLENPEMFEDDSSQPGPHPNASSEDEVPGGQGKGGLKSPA
Protocol: as §2, §1

Sequence of RARα/RXRα heterodimer (P19793 whole entry, chain 2 of 2, one chain of several): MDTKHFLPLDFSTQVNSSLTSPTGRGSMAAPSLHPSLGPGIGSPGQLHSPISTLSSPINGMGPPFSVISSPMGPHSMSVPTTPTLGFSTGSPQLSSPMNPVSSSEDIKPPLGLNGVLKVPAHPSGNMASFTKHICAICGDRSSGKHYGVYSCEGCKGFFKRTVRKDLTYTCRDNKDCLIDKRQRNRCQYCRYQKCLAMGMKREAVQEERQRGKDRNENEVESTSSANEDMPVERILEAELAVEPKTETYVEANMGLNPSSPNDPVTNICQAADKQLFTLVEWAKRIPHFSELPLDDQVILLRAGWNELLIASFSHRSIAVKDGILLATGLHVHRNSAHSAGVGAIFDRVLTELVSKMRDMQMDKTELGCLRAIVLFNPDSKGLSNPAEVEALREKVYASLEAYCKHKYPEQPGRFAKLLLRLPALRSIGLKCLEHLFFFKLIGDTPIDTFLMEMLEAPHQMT
Sequence of RARβ/RXRα heterodimer (P19793 whole entry, chain 2 of 2, one chain of several): as above
Sequence of TRαm1/RXRα (P19793 whole entry, stated change not applied, one chain of several): as the sequence (P19793 whole entry, chain 2 of 2, one chain of several) above
Sequence of Flag-RARγ/RXRα heterodimer (P19793 whole entry, chain 2 of 2, one chain of several): as above

B1: palindromic TRE (dsDNA)
DNA 1: GATCTCAGGTCATGACCTGAGATC
DNA 2: GATCTCAGGTCATGACCTGAGATC
- binding result [1]: binds
- binding result [2]: binds
- binding result [3]: binds
- binding result [4]: binds
- binding result [5]: binds
- binding result [6]: no binding
- binding result [7]: no binding
- binding result [8]: no binding
